In patent US20240317840A1 (Novartis, published 2024):
Like-named read-outs stand apart in the source and are kept apart here.

Key:
[1] = molecular target: HBsAg clinical mutation T126S (Hepatitis B virus); assay: sandwich ELISA, captured mutant HBsAg from culture supernatant;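 further: Anti-HBsAg antibodies tested for binding to mutant HBsAg secreted by stably transfected cell lines, supernatant incubated 1 h on antibody-coated plates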
Procedure: (§1) The binding of anti-HBsAg antibodies to 4 well characterized vaccine and/or HBsAg clinical mutations of HBsAg (G145R, D144A, T126S, M133L) were analyzed by sandwich ELISA. […] Supernatant collected from HBsAg cell-culture derived clinical mutation stables (G145R, D144A, T126S, M133L) was allowed to bind antibody coated plates for 1 hour.

[2] = molecular target: HBsAg clinical mutation M133L (Hepatitis B virus); assay: as above
Procedure: as §1

[3] = molecular target: HBsAg clinical mutation D144A (Hepatitis B virus); assay: as above
Procedure: as §1

[4] = molecular target: HBsAg of HBV genotype C (DQ087960) (Hepatitis B virus); assay: sandwich ELISA, captured HBsAg from culture supernatant
Procedure: (§2) The binding of anti-HBsAg antibodies to the 4 major genotypes (A-D) of HBV were analyzed by sandwich ELISA.

[5] = molecular target: T1, HBsAg of HBV genotype A (AY934772) (Hepatitis B virus); assay: as above
T1 construct: captured from supernatant by horse polyclonal anti-HBsAg
Procedure: as §2

[6] = molecular target: HBsAg of HBV genotype B (AF 121245) (Hepatitis B virus); assay: as above
Procedure: as §2

HBsAg AY serotype [7] = molecular target: T2, HBsAg AY serotype (Hepatitis B virus); assay: SPR Biacore T200, HBsAg particles immobilized, antibody as analyte, 1:1 fit;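 further: Anti-HBsAg antibodies assessed for binding against both major HBsAg serotypes, AY and AD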
T2 construct: also called HBsAg serotype AY
Procedure: (§3) Binding affinity interaction (KD) of the anti-HBsAg antibodies with the two major serotypes of HBsAg, AY and AD, was determined utilizing surface plasma resonance (SPR) technology.

HBsAg AD serotype [8] = molecular target: T3, HBsAg AD serotype (Hepatitis B virus); assay: as above
T3 construct: also called HBsAg serotype AD
Procedure: as §3

[9] = molecular target: HBsAg of HBV genotype D, serotype ayw (Hepatitis B virus); assay: cell-based or functional assay
[10] = molecular target: HBsAg clinical mutation T126S (Hepatitis B virus); assay: sandwich ELISA, mutant HBsAg from cell supernatant captured on horse polyclonal anti-HBsAg, antibody titrated, absorbance 450 nm
[11] = molecular target: HBsAg clinical mutation M133L (Hepatitis B virus); assay: as above
[12] = molecular target: HBsAg clinical mutation G145R (Hepatitis B virus); assay: sandwich ELISA, captured mutant HBsAg from culture supernatant;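 further: Anti-HBsAg antibodies tested for binding to mutant HBsAg secreted by stably transfected cell lines, supernatant incubated 1 h on antibody-coated plates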
Procedure: as §1

[13] = molecular target: HBsAg clinical mutation T126S (Hepatitis B virus); assay: sandwich ELISA, mutant HBsAg from cell supernatant captured on horse polyclonal anti-HBsAg, antibody titrated, absorbance 450 nm; remark: listed apart in the source
[14] = molecular target: HBsAg clinical mutation M133L (Hepatitis B virus); assay: as above; remark: listed apart in the source
[15] = molecular target: HBsAg clinical mutation T126S (Hepatitis B virus); assay: as above; remark: listed apart in the source
[16] = molecular target: HBsAg clinical mutation M133L (Hepatitis B virus); assay: as above; remark: listed apart in the source
[17] = molecular target: HBsAg clinical mutation T126S (Hepatitis B virus); assay: as above; remark: listed apart in the source
[18] = molecular target: HBsAg clinical mutation M133L (Hepatitis B virus); assay: as above; remark: listed apart in the source
[19] = molecular target: HBsAg clinical mutation D144A (Hepatitis B virus); assay: as above
HBsAg AY serotype [20] = molecular target: T2, HBsAg AY serotype; assay: SPR epitope binning; competitor (1st, saturating Ab): CR8087
Procedure: (§4) Epitope binning of anti-HBsAg antibodies with the two major serotypes of HBsAg, AY and AD, was performed utilizing surface plasmon resonance (SPR) technology. […] Each pair of antibodies was tested for blocking one another's binding to their epitope on the antigen by subsequently applying one antibody as first (saturating) followed by the other as second (competing) antibody and vice versa. Saturating antibodies were applied at 500 nM for 120s. Competing antibodies utilized the same conditions but were supplemented with the first antibody at 500 nM to maintain saturation. Binding signals were corrected by subtracting the reference cell signal. Specific binding of the competing antibody in presence of the saturating antibody was calculated by subtracting a saturating antibody plus buffer reference signal. All signals were normalized to 100 RU of immobilized ligand. The specific binding signal obtained from the application as competing antibody was expressed as percentage of the binding signal obtained from the application of the same antibody as saturating (first) antibody, the signal of which was regarded 100% binding.

HBsAg AD serotype [21] = molecular target: T3, HBsAg AD serotype; assay: as above
Procedure: as §4

[22] = molecular target: HBsAg clinical mutation T126S (Hepatitis B virus); assay: sandwich ELISA, mutant HBsAg from cell supernatant captured on horse polyclonal anti-HBsAg, antibody titrated, absorbance 450 nm; remark: listed apart in the source
[23] = molecular target: HBsAg clinical mutation M133L (Hepatitis B virus); assay: as above; remark: listed apart in the source
HBsAg AY serotype [24] = molecular target: T2, HBsAg AY serotype; assay: SPR epitope binning; competitor (1st, saturating Ab): HBC34
Procedure: as §4

HBsAg AD serotype [25] = molecular target: T3, HBsAg AD serotype; assay: as above
Procedure: as §4

[26] = molecular target: HBsAg clinical mutation T126S (Hepatitis B virus); assay: sandwich ELISA, mutant HBsAg from cell supernatant captured on horse polyclonal anti-HBsAg, antibody titrated, absorbance 450 nm; remark: listed apart in the source
[27] = molecular target: HBsAg clinical mutation M133L (Hepatitis B virus); assay: as above; remark: listed apart in the source
[28] = molecular target: HBsAg clinical mutation D144A (Hepatitis B virus); assay: as above; remark: listed apart in the source
[29] = molecular target: HBsAg clinical mutation T126S (Hepatitis B virus); assay: as above; remark: listed apart in the source
[30] = molecular target: HBsAg clinical mutation M133L (Hepatitis B virus); assay: as above; remark: listed apart in the source

Binder | IC50 [1] | IC50 [2] | IC50 [3] | IC50 [4] | IC50 [5] | IC50 [6] | Kd (HBsAg AY serotype [7]) | Kd (HBsAg AD serotype [8]) | Virus neutralization EC50 [9] | IC50 [12] | also measured
NOV3837 (antibody, human IgG1, kappa, V domains shown, Full human IgG1 (kappa) expressed in CHO cells) VH: QVQLQESGGRLVRPGGSLRLSCAASGFIFTDYYMTWIRQAPGKGPEWIAFITSGGETTYYADSVKGRFTISRDNAKKSLFLQMYSLRADDTAVYYCVRAHFDGYQYDTRGDFTYYFDNWGLGTLVSVSS VL: EIVMTQSPATLSVSPGERVTLSCRASQSVSSSLAWYQQKPGRAPRLLIYGASTRATGVPARFSGGGSGTDFTLTISSLQSEDFAVYYCHQYINWPPGDTFGQGTRLDIKR | 0.03 nM | 0.035 nM | 0.27 nM | 0.17 nM | 0.093 nM | 0.069 nM | 0.75 nM | 0.67 nM | 0.049 nM |  | EC50 (read off the curve) [10]: ~0.03 nM; EC50 (read off the curve) [11]: ~0.04 nM
NOV3838 (antibody, human IgG1, kappa, V domains shown, Full human IgG1 (kappa) expressed in CHO cells) VH: QVQLQESGGRLVRPGGSLRLSCAASGFIFTDYYMTWIRQAPGKGPEWIAFITSGGETTYYADSVKGRFTISRDNAKKSLFLQMYSLRADDTAVYYCVRAHFDLYQYDTRGDFTYYFDNWGLGTLVSVSS VL: EIVMTQSPATLSVSPGERVTLSCRASQSVSSSLAWYQQKPGRAPRLLIYGASTRATGVPARFSGGGSGTDFTLTISSLQSEDFAVYYCHQYINWPPGDTFGQGTRLDIKR | 0.11 nM | 0.15 nM | 6.1 nM | 0.21 nM | 0.2 nM | 0.05 nM | 0.6 nM | 0.68 nM | 0.12 nM | 5.2 nM | EC50 (read off the curve) [13]: ~0.1 nM; EC50 (read off the curve) [14]: ~0.2 nM
NOV3839 (antibody, human IgG1, kappa, V domains shown, Full human IgG1 (kappa) expressed in CHO cells) VH: QVQLQESGGRLVRPGGSLRLSCAASGFIFTDYYMTWIRQAPGKGPEWIAFITSGGETTYYADSVKGRFTISRDNAKKSLFLQMYSLRADDTAVYYCVRAHFDIYQYDTRGDFTYYFDNWGLGTLVSVSS VL: EIVMTQSPATLSVSPGERVTLSCRASQSVSSSLAWYQQKPGRAPRLLIYGASTRATGVPARFSGGGSGTDFTLTISSLQSEDFAVYYCHQYINWPPGDTFGQGTRLDIKR | 0.088 nM | 0.085 nM | 3.6 nM | 0.37 nM | 1.6 nM | 0.17 nM | 2.4 nM | 0.59 nM | 0.09 nM | 8.6 nM | EC50 (read off the curve) [15]: ~0.1 nM; EC50 (read off the curve) [16]: ~0.1 nM
NOV3840 (antibody, human IgG1, lambda, V domains shown, Full human IgG1 (lambda) expressed in CHO cells) VH: EVQLLESGGGLVQPGGSRRLSCAASGFTFSYYGMNWVRQAPGKGLEWVSGITNSGSITYYADSVKGRFSISRDNSKNTLFLQMNSLRAEDTAVYYCAKVGVRSSSGMWDLDYWGQGTLVTVSS VL: SYVLTQPPSVSVAPGQTARLSCGGNNIGSKSLQWYQQKPGQAPVLVVNDDSDRPSGIPERFSGSNSGNTATLTISRVEAGDEADYYCQVWDTSSDHVVFGGGTKLTVLG | 0.01 nM | 0.013 nM | 0.012 nM | 0.016 nM | 0.023 nM | 0.022 nM | 0.38 nM | 0.45 nM | 0.056 nM |  | EC50 (read off the curve) [17]: ~0.02 nM; EC50 (read off the curve) [18]: ~0.02 nM; EC50 (read off the curve) [19]: ~0.02 nM
NOV3841 (antibody, human IgG1, lambda, V domains shown, Full human IgG1 (lambda) expressed in CHO cells) VH: EVQLLESGGGLVQPGGSRRLSCAASGFTFSYYGMNWVRQAPGKGLEWVSGITQSGSITYYADTVKGRFSISRDNSKNTLFLQMNSLRAEDTAVYYCAKVGVRSSSGMWDLDYWGQGTLVTVSS VL: SYVLTQPPSVSVAPGQTARLSCGGNNIGSKSLQWYQQKPGQAPVLVVNDESDRPSGIPERFSGSNSGNTATLTISRVEAGDEADYYCQVWDTSSDHVVFGGGTKLTVLG | 0.079 nM | 0.044 nM | 7.8 nM | 2 nM | 1.1 nM | 0.35 nM | 0.61 nM | 0.91 nM | 0.74 nM | > 67 nM | binding of second antibody (HBsAg AY serotype [20]): 129 % of its binding as first antibody; binding of second antibody (HBsAg AD serotype [21]): 282 % of its binding as first antibody; EC50 (read off the curve) [22]: ~0.07 nM; EC50 (read off the curve) [23]: ~0.06 nM; binding of second antibody (HBsAg AY serotype [24]): 107 % of its binding as first antibody; binding of second antibody (HBsAg AD serotype [25]): 145 % of its binding as first antibody
NOV3842 (antibody, human IgG1, lambda, V domains shown, Full human IgG1 (lambda) expressed in CHO cells) VH: EVQLLESGGGLVQPGGSRRLSCAASGFTFSYYGMNWVRQAPGKGLEWVSGITNVGSITYYADTVKGRFSISRDNSKNTLFLQMNSLRAEDTAVYYCAKVGVRSSSGMWDLDYWGQGTLVTVSS VL: SYVLTQPPSVSVAPGQTARLSCGGNNIGSKSLQWYQQKPGQAPVLVVNDESDRPSGIPERFSGSNSGNTATLTISRVEAGDEADYYCQVWDTSSDHVVFGGGTKLTVLG | 0.042 nM | 0.084 nM | 0.12 nM | 0.75 nM | 0.46 nM | 0.28 nM | 0.15 nM | 0.13 nM | 0.23 nM | > 67 nM | EC50 (read off the curve) [26]: ~0.05 nM; EC50 (read off the curve) [27]: ~0.05 nM; EC50 (read off the curve) [28]: ~0.1 nM; binding of second antibody (HBsAg AY serotype [20]): 118 % of its binding as first antibody; binding of second antibody (HBsAg AD serotype [21]): 216 % of its binding as first antibody; binding of second antibody (HBsAg AY serotype [24]): 103 % of its binding as first antibody; binding of second antibody (HBsAg AD serotype [25]): 115 % of its binding as first antibody
NOV3833 (antibody, human IgG1, lambda, V domains shown, Full human IgG1 (lambda) expressed in CHO cells) VH: EMQVLESGGGLVQPGGSLRLSCAASGFTFHNYAMSWVRQVPGKGLEWVSSISGSGGSTYYADSVKGQFTISRDNSKNTLYLQMNSLRAEDTAVYYCAKSSILSGGHARVYGIDVWGQGTTVTVSS VL: QSALTQPPSVSVAPGQTARITCGGNNIGSQSVHWYQQKPGQAPILVVYDDTDRPSGIPARFSGSSSGSTATLTIGRVEAGDEADYYCQVWDSSSDHVVFGGGTKLTVLS | 0.025 nM | 0.036 nM | 2.8 nM | 0.12 nM | 0.56 nM | 0.12 nM | 0.26 nM | 0.33 nM | 0.27 nM | > 67 nM | EC50 (read off the curve) [29]: ~0.04 nM; EC50 (read off the curve) [30]: ~0.05 nM
